Experimental data: patent US20150266963A1

What was measured:
[1] = target: T1, recombinant human CD70 (Flag-TNC-CD70) (human) (UniProt P32970); test: blocking ELISA; human Flag-TNC-CD70; competitor CD27-Fc
T1 sequence (looked up): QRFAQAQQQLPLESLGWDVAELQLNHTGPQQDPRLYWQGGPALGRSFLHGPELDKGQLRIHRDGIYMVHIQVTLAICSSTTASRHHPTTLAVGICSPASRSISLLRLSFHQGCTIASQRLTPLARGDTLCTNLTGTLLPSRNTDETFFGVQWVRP

[2] = target: T2, human CD70 expressed on the surface of cells (human) (UniProt P32970); test: flow cytometry on U266 cells, goat anti human IgG1 FITC [panel U266]
T2 sequence (looked up): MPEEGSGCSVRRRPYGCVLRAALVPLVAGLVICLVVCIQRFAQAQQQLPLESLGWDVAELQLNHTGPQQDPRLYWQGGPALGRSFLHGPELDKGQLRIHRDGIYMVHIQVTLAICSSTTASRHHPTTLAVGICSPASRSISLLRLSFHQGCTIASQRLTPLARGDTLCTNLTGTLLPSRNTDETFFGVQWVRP

[3] = target: T1, recombinant human CD70 (Flag-TNC-CD70) (human); test: blocking ELISA; Flag-TNC-CD70 captured by anti-FLAG M2; competitor CD27-Fc 6.5 nM
[4] = target: T2, human CD70 expressed on the surface of cells (human); test: flow cytometry on U266 cells, 1 h at 4 °C, anti-hIgG1-Fc-FITC or anti-hIgG-Fc-PE [panel U266]
[5] = target: T2, human CD70 expressed on the surface of cells (human); test: flow cytometry on SU-DHL-6 cells, 1 h at 4 °C, anti-hIgG1-Fc-FITC or anti-hIgG-Fc-PE [panel SU-DHL-6]

IC50 [1]: 0.044 µg/mL
EC50 (read off the curve) [2]: 100 ng/mL
IC50 [3]: 5.5 µg/mL
EC50 (read off the curve) [4]: 100 ng/mL
EC50 (read off the curve) [5]: 2000 ng/mL
Substance: MDX1411 (antibody)
